Patent US20230220042A1 (SHANGHAI JIAO TONG UNIVERSITY SCHOOL OF MEDICINE, published 2023)

T1: Biotin-FcγRIIB (human, UniProt P31994 43-217, limits assumed, biotin-labelled)
T1 construct: Bought, biotin-labelled; used at 1 µg/ml for staining and sorting; also called human FcγRIIB; CD32b
T1 sequence (looked up): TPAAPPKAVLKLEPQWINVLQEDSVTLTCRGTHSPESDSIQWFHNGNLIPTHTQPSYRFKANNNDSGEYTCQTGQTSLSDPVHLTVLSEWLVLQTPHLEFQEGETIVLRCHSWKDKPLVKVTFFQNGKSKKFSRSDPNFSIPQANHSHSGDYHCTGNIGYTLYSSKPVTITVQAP

T2: FcγRIIB (human, UniProt P31994 43-217, biotin-labeled)
T2 construct: extracellular domain; Bought protein; also called CD32b
T2 sequence (looked up): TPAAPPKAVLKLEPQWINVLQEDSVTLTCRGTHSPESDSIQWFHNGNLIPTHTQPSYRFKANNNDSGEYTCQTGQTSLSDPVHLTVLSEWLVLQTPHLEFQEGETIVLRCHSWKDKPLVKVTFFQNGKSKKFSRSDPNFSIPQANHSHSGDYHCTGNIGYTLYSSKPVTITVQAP

T3: FcγRIIA^131H (human, UniProt P12318 34-217, biotin-labeled)
T3 construct: extracellular domain; Bought protein; also called RIIAH
T3 sequence (looked up): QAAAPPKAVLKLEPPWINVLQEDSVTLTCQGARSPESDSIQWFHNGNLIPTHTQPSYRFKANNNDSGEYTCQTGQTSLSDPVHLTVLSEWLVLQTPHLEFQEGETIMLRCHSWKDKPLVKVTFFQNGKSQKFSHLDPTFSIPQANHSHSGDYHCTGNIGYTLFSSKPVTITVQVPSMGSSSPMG

T4: FcγRIIA^131R (human, UniProt P12318 34-217, biotin-labeled)
T4 construct: extracellular domain; Bought protein; also called RIIAR
T4 sequence (looked up): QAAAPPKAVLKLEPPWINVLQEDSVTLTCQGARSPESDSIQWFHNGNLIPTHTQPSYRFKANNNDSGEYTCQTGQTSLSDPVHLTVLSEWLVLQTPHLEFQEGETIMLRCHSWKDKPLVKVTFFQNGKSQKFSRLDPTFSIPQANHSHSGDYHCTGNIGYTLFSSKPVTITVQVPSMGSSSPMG


Assays:
[1] = molecular target: T1, Biotin-FcγRIIB; assay: magnetic sorting on biotin-FcγRIIB with unlabelled activating FcγRs, NGS; Library2
Experimental: 3T3 cells were collected by trypsin digestion, and a single cell suspension was prepared. […] The cells were incubated for 15 minutes on ice and then washed twice with MACS buffer and re-suspended in 100 μl MACS buffer. Twenty-five μl anti-Biotin magnetic beads were added, and the cells were incubated for 15 minutes on ice and then washed once with MACS buffer and re-suspended to 500 μl, and added to the LS column put in the magnetic field. The effluent was collected, washed with 3 mL of MACS buffer and collected; The LS column was then removed out of the magnetic field, and 5 mL of MACS buffer was used to rapidly elute the remaining cells from the sorting column to collect positive cells, which are the high I/A ratio cells.
The high-FcγRIIB-affinity cells obtained from the above flow cytometry sorting are further sorted by magnetic-activated sorting. The cells are incubated with the mixture of Biotin-labeled FcγRIIB and non-labeled activating FcγRs, and then the labeled cells are sorted by anti-Biotin magnetic beads. The enrichment ratios after sorting relative to before sorting are analyzed by NGS.

[2] = molecular target: T2, FcγRIIB; assay: ELISA; relative affinity to FcγRIIB over that to FcγRIIA131R
[3] = molecular target: T3, FcγRIIA^131H; assay: ELISA, coated antibody, biotin-FcγR;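 for Absorbance value: antibody coated at 2 µg/mL at 100 µL per well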
[4] = molecular target: T4, FcγRIIA^131R; assay: ELISA, coated antibody, biotin-FcγR;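 for Absorbance value: antibody coated at 2 µg/mL at 100 µL per well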
[5] = molecular target: T5, FcγRI (human, UniProt P12314 16-292, biotin-labeled); assay: ELISA, coated antibody, biotin-FcγR;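 for Absorbance value: antibody coated at 2 µg/mL at 100 µL per well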
T5 construct: extracellular domain; Bought protein; also called CD64

[6] = molecular target: T2, FcγRIIB; assay: ELISA, coated antibody, biotin-FcγR;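 for Absorbance value: antibody coated at 2 µg/mL at 100 µL per well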
[7] = molecular target: T6, FcγRIIIA^158F (human, UniProt P08637 17-208, biotin-labeled); assay: ELISA, coated antibody, biotin-FcγR;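 for Absorbance value: antibody coated at 2 µg/mL at 100 µL per well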
T6 construct: extracellular domain; Bought protein; also called RIIIAF

[8] = molecular target: T7, FcγRIIIA^158V (human, UniProt P08637 17-208, biotin-labeled); assay: ELISA, coated antibody, biotin-FcγR;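 for Absorbance value: antibody coated at 2 µg/mL at 100 µL per well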
T7 construct: extracellular domain; Bought protein; also called RIIIAV; CD16a 158V
T7 sequence (P08637 17-208 F176V): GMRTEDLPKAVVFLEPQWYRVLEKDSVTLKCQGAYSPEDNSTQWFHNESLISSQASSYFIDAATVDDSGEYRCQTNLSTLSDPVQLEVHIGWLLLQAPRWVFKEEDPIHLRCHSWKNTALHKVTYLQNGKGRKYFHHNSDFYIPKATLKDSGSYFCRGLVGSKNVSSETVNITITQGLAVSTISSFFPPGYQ

T6 sequence (P08637 17-208): as the sequence (P08637 17-208 F176V) above, with V160F counted along it
T5 sequence (P12314 16-292): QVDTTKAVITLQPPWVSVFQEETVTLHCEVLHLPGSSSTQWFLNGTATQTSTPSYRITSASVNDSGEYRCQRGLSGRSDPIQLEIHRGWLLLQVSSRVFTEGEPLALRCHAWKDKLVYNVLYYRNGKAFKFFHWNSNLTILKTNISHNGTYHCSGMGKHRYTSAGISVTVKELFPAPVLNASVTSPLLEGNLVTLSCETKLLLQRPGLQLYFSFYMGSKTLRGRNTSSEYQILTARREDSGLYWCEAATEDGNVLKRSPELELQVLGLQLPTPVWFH

Row | Binder | Enrichment factor (percentage after sorting/percentage before sorting) [1] | Increased factor (mutation enrichment factor/wild-type enrichment factor) [1] | Percentage after sorting/unbinding percentage [1] | Percentage before sorting/unbinding percentage [1] | also measured
1 | human IgG2 anti-mouse CD40 surface displayed antibody, Fc mutant H268N (antibody, name in EU numbering, as m1; positions are Eu numbers; copies: 2 + 2) light chain (with the P2A rest): DTVLTQSPALAVSPGERVTISCRASDSVSTLMHWYQQKPGQQPKLLIYLASHLESGVPARFSGSGSGTDFTLTIDPVEADDTATYYCQQSWNDPWTFGGGTKLELKRTVAAPSVFIFPPSDEQLKSGTASVVCLLNNFYPREAKVQWKVDNALQSGNSQESVTEQDSKDSTYSLSSTLTLSKADYEKHKVYACEVTHQGLSSPVTKSFNRGECGSGATNFSLLKQAGDVEENPG heavy chain: EVQLVESDGGLVQPGRSLKLPCAASGFTFSDYYMAWVRQAPTKGLEWVASISYDGSSTYYRDSVKGRFTISRDNAKSTLYLQMDSLRSEDTATYYCGRHSSYFDYWGQGVMVTVSSASTKGPSVFPLAPCSRSTSESTAALGCLVKDYFPEPVTVSWNSGALTSGVHTFPAVLQSSGLYSLSSVVTVPSSNFGTQTYTCNVDHKPSNTKVDKTVERKCCVECPPCPAPPVAGPSVFLFPPKPKDTLMISRTPEVTCVVVDVSNEDPEVQFNWYVDGVEVHNAKTKPREEQFNSTFRVVSVLTVVHQDWLNGKEYKCKVSNKGLPAPIEKTISKTKGQPREPQVYTLPPSREEMTKNQVSLTCLVKGFYPSDIAVEWESNGQPENNYKTTPPMLDSDGSFFLYSKLTVDKSRWQQGNVFSCSVMHEALHNHYTQKSLSLSPGKLEPPPSTVSNMATVAVLVVLGAAIVTGAVVAFVMKMRRRNTGGKGGDYALAPGSQTSDLSLPDCKVMVHDPHSLA | 2.31 | 2.79 | 662 | 286 | 
2 | human IgG2 anti-mouse CD40 surface displayed antibody, Fc mutant P271L (antibody, name in EU numbering, as m1; positions are Eu numbers; copies: 2 + 2) light chain (with the P2A rest): DTVLTQSPALAVSPGERVTISCRASDSVSTLMHWYQQKPGQQPKLLIYLASHLESGVPARFSGSGSGTDFTLTIDPVEADDTATYYCQQSWNDPWTFGGGTKLELKRTVAAPSVFIFPPSDEQLKSGTASVVCLLNNFYPREAKVQWKVDNALQSGNSQESVTEQDSKDSTYSLSSTLTLSKADYEKHKVYACEVTHQGLSSPVTKSFNRGECGSGATNFSLLKQAGDVEENPG heavy chain: EVQLVESDGGLVQPGRSLKLPCAASGFTFSDYYMAWVRQAPTKGLEWVASISYDGSSTYYRDSVKGRFTISRDNAKSTLYLQMDSLRSEDTATYYCGRHSSYFDYWGQGVMVTVSSASTKGPSVFPLAPCSRSTSESTAALGCLVKDYFPEPVTVSWNSGALTSGVHTFPAVLQSSGLYSLSSVVTVPSSNFGTQTYTCNVDHKPSNTKVDKTVERKCCVECPPCPAPPVAGPSVFLFPPKPKDTLMISRTPEVTCVVVDVSHEDLEVQFNWYVDGVEVHNAKTKPREEQFNSTFRVVSVLTVVHQDWLNGKEYKCKVSNKGLPAPIEKTISKTKGQPREPQVYTLPPSREEMTKNQVSLTCLVKGFYPSDIAVEWESNGQPENNYKTTPPMLDSDGSFFLYSKLTVDKSRWQQGNVFSCSVMHEALHNHYTQKSLSLSPGKLEPPPSTVSNMATVAVLVVLGAAIVTGAVVAFVMKMRRRNTGGKGGDYALAPGSQTSDLSLPDCKVMVHDPHSLA | 4.43 | 5.34 | 143 | 32.3 | 
3 | human IgG2 anti-mouse CD40 surface displayed antibody, Fc mutant P271S (antibody, name in EU numbering, as m1; positions are Eu numbers; copies: 2 + 2) light chain (with the P2A rest): DTVLTQSPALAVSPGERVTISCRASDSVSTLMHWYQQKPGQQPKLLIYLASHLESGVPARFSGSGSGTDFTLTIDPVEADDTATYYCQQSWNDPWTFGGGTKLELKRTVAAPSVFIFPPSDEQLKSGTASVVCLLNNFYPREAKVQWKVDNALQSGNSQESVTEQDSKDSTYSLSSTLTLSKADYEKHKVYACEVTHQGLSSPVTKSFNRGECGSGATNFSLLKQAGDVEENPG heavy chain: EVQLVESDGGLVQPGRSLKLPCAASGFTFSDYYMAWVRQAPTKGLEWVASISYDGSSTYYRDSVKGRFTISRDNAKSTLYLQMDSLRSEDTATYYCGRHSSYFDYWGQGVMVTVSSASTKGPSVFPLAPCSRSTSESTAALGCLVKDYFPEPVTVSWNSGALTSGVHTFPAVLQSSGLYSLSSVVTVPSSNFGTQTYTCNVDHKPSNTKVDKTVERKCCVECPPCPAPPVAGPSVFLFPPKPKDTLMISRTPEVTCVVVDVSHEDSEVQFNWYVDGVEVHNAKTKPREEQFNSTFRVVSVLTVVHQDWLNGKEYKCKVSNKGLPAPIEKTISKTKGQPREPQVYTLPPSREEMTKNQVSLTCLVKGFYPSDIAVEWESNGQPENNYKTTPPMLDSDGSFFLYSKLTVDKSRWQQGNVFSCSVMHEALHNHYTQKSLSLSPGKLEPPPSTVSNMATVAVLVVLGAAIVTGAVVAFVMKMRRRNTGGKGGDYALAPGSQTSDLSLPDCKVMVHDPHSLA | 2.74 | 3.3 | 22.2 | 8.1 | 
4 | human IgG2 anti-mouse CD40 surface displayed antibody, Fc mutant P271I (antibody, name in EU numbering, as m1; positions are Eu numbers; copies: 2 + 2) light chain (with the P2A rest): DTVLTQSPALAVSPGERVTISCRASDSVSTLMHWYQQKPGQQPKLLIYLASHLESGVPARFSGSGSGTDFTLTIDPVEADDTATYYCQQSWNDPWTFGGGTKLELKRTVAAPSVFIFPPSDEQLKSGTASVVCLLNNFYPREAKVQWKVDNALQSGNSQESVTEQDSKDSTYSLSSTLTLSKADYEKHKVYACEVTHQGLSSPVTKSFNRGECGSGATNFSLLKQAGDVEENPG heavy chain: EVQLVESDGGLVQPGRSLKLPCAASGFTFSDYYMAWVRQAPTKGLEWVASISYDGSSTYYRDSVKGRFTISRDNAKSTLYLQMDSLRSEDTATYYCGRHSSYFDYWGQGVMVTVSSASTKGPSVFPLAPCSRSTSESTAALGCLVKDYFPEPVTVSWNSGALTSGVHTFPAVLQSSGLYSLSSVVTVPSSNFGTQTYTCNVDHKPSNTKVDKTVERKCCVECPPCPAPPVAGPSVFLFPPKPKDTLMISRTPEVTCVVVDVSHEDIEVQFNWYVDGVEVHNAKTKPREEQFNSTFRVVSVLTVVHQDWLNGKEYKCKVSNKGLPAPIEKTISKTKGQPREPQVYTLPPSREEMTKNQVSLTCLVKGFYPSDIAVEWESNGQPENNYKTTPPMLDSDGSFFLYSKLTVDKSRWQQGNVFSCSVMHEALHNHYTQKSLSLSPGKLEPPPSTVSNMATVAVLVVLGAAIVTGAVVAFVMKMRRRNTGGKGGDYALAPGSQTSDLSLPDCKVMVHDPHSLA | 2.63 | 3.17 |  |  | 
5 | anti-human OX40 IgG2 antibody Mut_8 (V266L/L328W) (antibody, name in EU numbering, Substitutions in Eu numbering; entries include an unstated signal peptide) heavy: QVQLQESGPGLVKPSGTLSLTCAVSGGSISSSIWWSWVRQPPGKGLEWIGEIHHSGNTNCNPSLKSRVTISIDKSKNQFSLKLTSVTAADTAVYYCARAGTGTTLDYWGQGTLVTVSSASTKGPSVFPLAPCSRSTSESTAALGCLVKDYFPEPVTVSWNSGALTSGVHTFPAVLQSSGLYSLSSVVTVPSSNFGTQTYTCNVDHKPSNTKVDKTVERKCCVECPPCPAPPVAGPSVFLFPPKPKDTLMISRTPEVTCVVVDLSHEDPEVQFNWYVDGVEVHNAKTKPREEQFNSTFRVVSVLTVVHQDWLNGKEYKCKVSNKGWPAPIEKTISKTKGQPREPQVYTLPPSREEMTKNQVSLTCLVKGFYPSDIAVEWESNGQPENNYKTTPPMLDSDGSFFLYSKLTVDKSRWQQGNVFSCSVMHEALHNHYTQKSLSLSPGK light: EIVLTQSPGTLSLSPGERATLSCRASQSVSGDYLAWYQQKLGQAPRLLIYGASIRATGIPDRFSGSGSGTDFTLTISKLEPEDFAVYYCQQYGSSPLTFGGGTKVEIKRTVAAPSVFIFPPSDEQLKSGTASVVCLLNNFYPREAKVQWKVDNALQSGNSQESVTEQDSKDSTYSLSSTLTLSKADYEKHKVYACEVTHQGLSSPVTKSFNRGEC |  |  |  |  | RIIB/RIIAR [2]: 1.09 ratio; Absorbance value [3]: 0.52 A650; Relative binding affinity RIIAH/G1 [3]: 0.9 ratio; Absorbance value [4]: 0.34 A650; Relative binding affinity RIIAR/G1 [4]: 1.3 ratio; Absorbance value [5]: 0.14 A650; Relative binding affinity RI/G1 [5]: 0.05 ratio; Absorbance value [6]: 1.07 A650; Increased factor of RIIB binding compared with wild-type IgG2 [6]: 14.3 fold; Relative binding affinity RIIB/G1 [6]: 1.42 ratio; Absorbance value [7]: 0.08 A650; Relative binding affinity RIIIAF/G1 [7]: 0.44 ratio; Absorbance value [8]: 0.07 A650; Relative binding affinity RIIIAV/G1 [8]: 0.07 ratio
